The record followed here is the supplement of paper PMC9428881.

± gives the standard error.

The nature of this data set: background-corrected fluorescence of 3'-dye-labeled ssDNA relative to brightest sequence (3'-GCGCG) (fraction); higher = brighter dye fluorescence (less quenching). Summed up:
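Subtracting background from unlabeled oligos and scaling to the brightest sequence gave the reported fluorescence. Single-stranded DNA bearing a 3' Cy3 or Cy5 dye next to each of 1024 permuted pentamers was assembled on glass slides by light-directed phosphoramidite synthesis. Following a 2 h r.t. acetonitrile wash, slides were scanned at 532 or 635 nm before and after overnight ethylenediamine/ethanol deprotection, and values were averaged over 10 features per array and at least 3 syntheses.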

Consider “TTTTTTGATGATGATGCTGCTTTTTTTTTTTTTTTCCCAA [AACCC]”, for which the background-corrected fluorescence came to 0.485 ± 0.031 (dye: Cy3 (3' terminal)) and 0.386 ± 0.022 (dye: Cy5 (3' terminal)).

Sequence “TTTTTTGATGATGCGCAGCATTTTTTTTTTTTTTTCCATT [TTACC]” gave a background-corrected fluorescence (dye: Cy3 (3' terminal)) of 0.541 ± 0.041 and a background-corrected fluorescence (dye: Cy5 (3' terminal)) of 0.357 ± 0.02.

As to “TTTTTTGATGATGCGCATCATTTTTTTTTTTTTTTCCATG [GTACC]”, the background-corrected fluorescence is, setting by setting: (dye: Cy3 (3' terminal)) 0.542 ± 0.026; (dye: Cy5 (3' terminal)) 0.361 ± 0.035.

“TTTTTTGATGATGCGCATGATTTTTTTTTTTTTTTCCATC [CTACC]” returned a background-corrected fluorescence (dye: Cy3 (3' terminal)) of 0.387 ± 0.081 and a background-corrected fluorescence (dye: Cy5 (3' terminal)) of 0.281 ± 0.02.

On to “TTTTTTGATGATGCGCATGCTTTTTTTTTTTTTTTCCATA [ATACC]”, for which the background-corrected fluorescence runs as follows: (dye: Cy3 (3' terminal)) 0.488 ± 0.015; (dye: Cy5 (3' terminal)) 0.38 ± 0.033.

In the case of “TTTTTTGATGATGCTCAGCATTTTTTTTTTTTTTTCCAGT [TGACC]”, the background-corrected fluorescence by setting is: (dye: Cy3 (3' terminal)) 0.615 ± 0.023; (dye: Cy5 (3' terminal)) 0.458 ± 0.021.

On to “TTTTTTGATGATGCTCATCATTTTTTTTTTTTTTTCCAGG [GGACC]”, for which the background-corrected fluorescence is, setting by setting: (dye: Cy3 (3' terminal)) 0.642 ± 0.016; (dye: Cy5 (3' terminal)) 0.511 ± 0.057.

Take “TTTTTTGATGATGCTCATGATTTTTTTTTTTTTTTCCAGC [CGACC]”: the background-corrected fluorescence by setting is: (dye: Cy3 (3' terminal)) 0.503 ± 0.036; (dye: Cy5 (3' terminal)) 0.395 ± 0.02.

In the case of “TTTTTTGATGATGCTCATGCTTTTTTTTTTTTTTTCCAGA [AGACC]”, the background-corrected fluorescence was determined as 0.635 ± 0.027 (dye: Cy3 (3' terminal)) and 0.527 ± 0.028 (dye: Cy5 (3' terminal)).

The sequence “TTTTTTGATGATGCTGAGCATTTTTTTTTTTTTTTCCACT [TCACC]” came in with a background-corrected fluorescence (dye: Cy3 (3' terminal)) of 0.444 ± 0.029 and a background-corrected fluorescence (dye: Cy5 (3' terminal)) of 0.322 ± 0.023.

“TTTTTTGATGATGCTGATCATTTTTTTTTTTTTTTCCACG [GCACC]”: the background-corrected fluorescence by setting is: (dye: Cy3 (3' terminal)) 0.513 ± 0.025; (dye: Cy5 (3' terminal)) 0.386 ± 0.021.

As to “TTTTTTGATGATGCTGATGATTTTTTTTTTTTTTTCCACC”, the background-corrected fluorescence came out at 0.378 ± 0.0043 (dye: Cy3 (3' terminal)) and 0.275 ± 0.026 (dye: Cy5 (3' terminal)).

As to “TTTTTTGATGATGCTGATGCTTTTTTTTTTTTTTTCCACA [ACACC]”, the background-corrected fluorescence came to 0.472 ± 0.027 (dye: Cy3 (3' terminal)) and 0.375 ± 0.055 (dye: Cy5 (3' terminal)).

In the case of “TTTTTTGATGATGCTGCGCATTTTTTTTTTTTTTTCCAAT [TAACC]”, the background-corrected fluorescence reads like this: (dye: Cy3 (3' terminal)) 0.527 ± 0.017; (dye: Cy5 (3' terminal)) 0.394 ± 0.022.

As for “TTTTTTGATGATGCTGCTCATTTTTTTTTTTTTTTCCAAG [GAACC]”, the background-corrected fluorescence stood at 0.521 ± 0.029 (dye: Cy3 (3' terminal)) and 0.384 ± 0.029 (dye: Cy5 (3' terminal)).

Regarding “TTTTTTGATGATGCTGCTGATTTTTTTTTTTTTTTCCAAC [CAACC]”, the background-corrected fluorescence by setting is: (dye: Cy3 (3' terminal)) 0.403 ± 0.021; (dye: Cy5 (3' terminal)) 0.291 ± 0.02.

Consider “TTTTTTGATGATGCTGCTGCTTTTTTTTTTTTTTTCCAAA [AAACC]”, for which the background-corrected fluorescence (dye: Cy3 (3' terminal)) was determined as 0.559 ± 0.025 and the background-corrected fluorescence (dye: Cy5 (3' terminal)) turned out to be 0.445 ± 0.051.

As to “TTTTTTGATGCGCAGCAGCATTTTTTTTTTTTTTTCATTT [TTTAC]”, the background-corrected fluorescence reads like this: (dye: Cy3 (3' terminal)) 0.523 ± 0.022; (dye: Cy5 (3' terminal)) 0.38 ± 0.032.

As for “TTTTTTGATGCGCAGCATCATTTTTTTTTTTTTTTCATTG [GTTAC]”, the background-corrected fluorescence is, setting by setting: (dye: Cy3 (3' terminal)) 0.561 ± 0.029; (dye: Cy5 (3' terminal)) 0.363 ± 0.021.

As for “TTTTTTGATGCGCAGCATGATTTTTTTTTTTTTTTCATTC [CTTAC]”, the background-corrected fluorescence worked out at 0.398 ± 0.017 (dye: Cy3 (3' terminal)) and 0.297 ± 0.021 (dye: Cy5 (3' terminal)).

On to “TTTTTTGATGCGCAGCATGCTTTTTTTTTTTTTTTCATTA [ATTAC]”, for which the background-corrected fluorescence runs as follows: (dye: Cy3 (3' terminal)) 0.554 ± 0.021; (dye: Cy5 (3' terminal)) 0.398 ± 0.027.

Turning to “TTTTTTGATGCGCATCAGCATTTTTTTTTTTTTTTCATGT [TGTAC]”, the background-corrected fluorescence reads like this: (dye: Cy3 (3' terminal)) 0.615 ± 0.028; (dye: Cy5 (3' terminal)) 0.464 ± 0.032.

On to “TTTTTTGATGCGCATCATCATTTTTTTTTTTTTTTCATGG [GGTAC]”, for which the background-corrected fluorescence by setting is: (dye: Cy3 (3' terminal)) 0.6391 ± 0.0053; (dye: Cy5 (3' terminal)) 0.521 ± 0.075.

With “TTTTTTGATGCGCATCATGATTTTTTTTTTTTTTTCATGC [CGTAC]”, the background-corrected fluorescence is 0.536 ± 0.028 (dye: Cy3 (3' terminal)) and 0.395 ± 0.026 (dye: Cy5 (3' terminal)).

“TTTTTTGATGCGCATCATGCTTTTTTTTTTTTTTTCATGA [AGTAC]”: the background-corrected fluorescence is, setting by setting: (dye: Cy3 (3' terminal)) 0.672 ± 0.026; (dye: Cy5 (3' terminal)) 0.579 ± 0.038.

As to “TTTTTTGATGCGCATGAGCATTTTTTTTTTTTTTTCATCT [TCTAC]”, the background-corrected fluorescence was 0.48 ± 0.021 (dye: Cy3 (3' terminal)) and 0.33 ± 0.034 (dye: Cy5 (3' terminal)).

For “TTTTTTGATGCGCATGATCATTTTTTTTTTTTTTTCATCG [GCTAC]”, the background-corrected fluorescence runs as follows: (dye: Cy3 (3' terminal)) 0.543 ± 0.018; (dye: Cy5 (3' terminal)) 0.375 ± 0.026.

Take “TTTTTTGATGCGCATGATGATTTTTTTTTTTTTTTCATCC [CCTAC]”: the background-corrected fluorescence by setting is: (dye: Cy3 (3' terminal)) 0.38 ± 0.02; (dye: Cy5 (3' terminal)) 0.273 ± 0.017.

With “TTTTTTGATGCGCATGATGCTTTTTTTTTTTTTTTCATCA [ACTAC]”, the background-corrected fluorescence was 0.483 ± 0.034 (dye: Cy3 (3' terminal)) and 0.372 ± 0.026 (dye: Cy5 (3' terminal)).

Consider “TTTTTTGATGCGCATGCGCATTTTTTTTTTTTTTTCATAT [TATAC]”, for which the background-corrected fluorescence was found to be 0.501 ± 0.036 (dye: Cy3 (3' terminal)) and 0.397 ± 0.025 (dye: Cy5 (3' terminal)).

Turning to “TTTTTTGATGCGCATGCTCATTTTTTTTTTTTTTTCATAG [GATAC]”, the background-corrected fluorescence by setting is: (dye: Cy3 (3' terminal)) 0.521 ± 0.02; (dye: Cy5 (3' terminal)) 0.422 ± 0.027.

As for “TTTTTTGATGCGCATGCTGATTTTTTTTTTTTTTTCATAC”, the background-corrected fluorescence reads like this: (dye: Cy3 (3' terminal)) 0.443 ± 0.024; (dye: Cy5 (3' terminal)) 0.314 ± 0.032.

On to “TTTTTTGATGCGCATGCTGCTTTTTTTTTTTTTTTCATAA [AATAC]”, for which the background-corrected fluorescence worked out at 0.529 ± 0.021 (dye: Cy3 (3' terminal)) and 0.428 ± 0.022 (dye: Cy5 (3' terminal)).

Turning to “TTTTTTGATGCTCAGCAGCATTTTTTTTTTTTTTTCAGTT [TTGAC]”, the background-corrected fluorescence is 0.598 ± 0.018 (dye: Cy3 (3' terminal)) and 0.434 ± 0.015 (dye: Cy5 (3' terminal)).

As to “TTTTTTGATGCTCAGCATCATTTTTTTTTTTTTTTCAGTG [GTGAC]”, the background-corrected fluorescence by setting is: (dye: Cy3 (3' terminal)) 0.61 ± 0.026; (dye: Cy5 (3' terminal)) 0.463 ± 0.025.

As for “TTTTTTGATGCTCAGCATGATTTTTTTTTTTTTTTCAGTC [CTGAC]”, the background-corrected fluorescence reads like this: (dye: Cy3 (3' terminal)) 0.477 ± 0.0054; (dye: Cy5 (3' terminal)) 0.373 ± 0.086.

Sequence “TTTTTTGATGCTCAGCATGCTTTTTTTTTTTTTTTCAGTA [ATGAC]” came in with a background-corrected fluorescence (dye: Cy3 (3' terminal)) of 0.609 ± 0.021 and a background-corrected fluorescence (dye: Cy5 (3' terminal)) of 0.461 ± 0.022.

As to “TTTTTTGATGCTCATCAGCATTTTTTTTTTTTTTTCAGGT [TGGAC]”, the background-corrected fluorescence (dye: Cy3 (3' terminal)) turned out to be 0.693 ± 0.045 and the background-corrected fluorescence (dye: Cy5 (3' terminal)) is 0.534 ± 0.037.

As for “TTTTTTGATGCTCATCATCATTTTTTTTTTTTTTTCAGGG [GGGAC]”, the background-corrected fluorescence by setting is: (dye: Cy3 (3' terminal)) 0.723 ± 0.023; (dye: Cy5 (3' terminal)) 0.574 ± 0.026.

Turning to “TTTTTTGATGCTCATCATGATTTTTTTTTTTTTTTCAGGC [CGGAC]”, the background-corrected fluorescence was 0.571 ± 0.012 (dye: Cy3 (3' terminal)) and 0.469 ± 0.032 (dye: Cy5 (3' terminal)).

As to “TTTTTTGATGCTCATCATGCTTTTTTTTTTTTTTTCAGGA [AGGAC]”, the background-corrected fluorescence runs as follows: (dye: Cy3 (3' terminal)) 0.705 ± 0.027; (dye: Cy5 (3' terminal)) 0.6 ± 0.034.

For the sequence “TTTTTTGATGCTCATGAGCATTTTTTTTTTTTTTTCAGCT [TCGAC]”, the background-corrected fluorescence is 0.543 ± 0.022 (dye: Cy3 (3' terminal)) and 0.418 ± 0.022 (dye: Cy5 (3' terminal)).

With “TTTTTTGATGCTCATGATCATTTTTTTTTTTTTTTCAGCG [GCGAC]”, the background-corrected fluorescence reads like this: (dye: Cy3 (3' terminal)) 0.622 ± 0.036; (dye: Cy5 (3' terminal)) 0.502 ± 0.043.
